Columns and labels:
[1] = target: chimeric V2R harboring the carboxy-terminal tail of the β2-adrenergic receptor (V2β2AR)
[2] = target: vasopressin type 2 receptor (V2R) (UniProt P30518)
[3] = target: vasopressin type 2 receptor (V2R) (UniProt P30518); remark: listed apart in the source

Work on arginine vasopressin (AVP) (peptide) yielded a potency of AVP for recruitment of Rluc-mGsq to early endosomes (EbBRET with rGFP-Rab5), cells expressing V2β2AR [1] of -7.82 LogEC50, a potency of AVP for recruitment of Rluc-mGsq to the plasma membrane (EbBRET with rGFP-CAAX), cells expressing V2β2AR [1] of -7.97 LogEC50 and a transduction coefficient (operational model) of AVP for recruitment of Rluc-mGs to the plasma membrane, cells expressing V2β2AR [1] of 8.04 Logτ/Ka. It also gave a transduction coefficient (operational model) of AVP for recruitment of Rluc-mGsq to early endosomes, cells expressing V2β2AR [1] of 7.91 Logτ/Ka.
With mini G protein mGsq the AVP-mediated maximal efficacy of the AVP dose-response of Rluc-mGsq recruitment to early endosomes (EbBRET with rGFP-Rab5), cells expressing V2R [2] was 0.05 ΔEbBRET, the AVP-mediated maximal efficacy of the AVP dose-response of Rluc-mGsq recruitment to the plasma membrane (EbBRET with rGFP-CAAX), cells expressing V2R [2] was 0.161 ΔEbBRET and the AVP-mediated maximal efficacy of the AVP dose-response of Rluc-mGsq recruitment to early endosomes (EbBRET with rGFP-Rab5), cells expressing V2β2AR [1] was 0.061 ΔEbBRET. The AVP-mediated maximal efficacy of the AVP dose-response of Rluc-mGsq recruitment to the plasma membrane (EbBRET with rGFP-CAAX), cells expressing V2β2AR [1] was 0.183 ΔEbBRET, the AVP-induced maximal efficacy of the AVP dose-response of Rluc-mGsq recruitment to early endosomes (EbBRET with rGFP-Rab5), parental HEK293 cells, 45 minutes [3] was 0.05 ΔEbBRET and the AVP-induced maximal efficacy of the AVP dose-response of Rluc-mGsq recruitment to early endosomes (EbBRET with rGFP-Rab5), Δβarr1/2 HEK293 cells, 45 minutes [3] was 0.024 ΔEbBRET. The AVP-induced maximal efficacy of the AVP dose-response of Rluc-mGsq recruitment to the plasma membrane (EbBRET with rGFP-CAAX), parental HEK293 cells, 10 minutes [3] was 0.168 ΔEbBRET and the AVP-induced maximal efficacy of the AVP dose-response of Rluc-mGsq recruitment to the plasma membrane (EbBRET with rGFP-CAAX), Δβarr1/2 HEK293 cells, 10 minutes [3] was 0.18 ΔEbBRET.
For mini G protein mGs, the AVP-mediated maximal efficacy of the AVP dose-response of Rluc-mGs recruitment to early endosomes (EbBRET with rGFP-Rab5), cells expressing V2R [2] was 0.167 ΔEbBRET, the AVP-mediated maximal efficacy of the AVP dose-response of Rluc-mGs recruitment to the plasma membrane (EbBRET with rGFP-CAAX), cells expressing V2R [2] was 0.3 ΔEbBRET and the AVP-mediated maximal efficacy of the AVP dose-response of Rluc-mGs recruitment to early endosomes (EbBRET with rGFP-Rab5), cells expressing V2β2AR [1] was 0.15 ΔEbBRET. The AVP-mediated maximal efficacy of the AVP dose-response of Rluc-mGs recruitment to the plasma membrane (EbBRET with rGFP-CAAX), cells expressing V2β2AR [1] was 0.392 ΔEbBRET, the AVP-induced maximal efficacy of the AVP dose-response of Rluc-mGs recruitment to early endosomes (EbBRET with rGFP-Rab5), parental HEK293 cells, 45 minutes [3] was 0.18 ΔEbBRET and the AVP-induced maximal efficacy of the AVP dose-response of Rluc-mGs recruitment to early endosomes (EbBRET with rGFP-Rab5), Δβarr1/2 HEK293 cells, 45 minutes [3] was 0.074 ΔEbBRET. The AVP-induced maximal efficacy of the AVP dose-response of Rluc-mGs recruitment to the plasma membrane (EbBRET with rGFP-CAAX), parental HEK293 cells, 10 minutes [3] was 0.324 ΔEbBRET and the AVP-induced maximal efficacy of the AVP dose-response of Rluc-mGs recruitment to the plasma membrane (EbBRET with rGFP-CAAX), Δβarr1/2 HEK293 cells, 10 minutes [3] was 0.376 ΔEbBRET.

Source: publication doi:10.1101/2023.04.01.535208
